This note sets out measurements from paper doi:10.1101/2024.08.29.607757 (bioRxiv, 2024).

B3: NtcA from Synechococcus elongatus (strain PCC7942) with N-terminal His6 tag (natural protein)
chain: MLANENSLLTMFRELGSGKLPLQIEQFERGKTIFFPGDPAERVYLLVKGAVKLSRVYESGEEITVALLRENSVFGVLSLLTGQRSDRFYHAVAFTPVQLFSVPIEFMQKALIERPELANVMLQGLSSRILQTEMMIETLAHRDMGSRLVSFLLILCRDFGIPSPDGITIDLKLSHQAIAEAIGSTRVTVTRLLGDLRESKLIAIHKKRITVFNPVALSQQFS

Data set [1] deals with B3. Briefly: crystal structure.
Another data set deals with T1, NtcA (Synechococcus elongatus PCC7942, UniProt P29283 1-222).
T1 sequence: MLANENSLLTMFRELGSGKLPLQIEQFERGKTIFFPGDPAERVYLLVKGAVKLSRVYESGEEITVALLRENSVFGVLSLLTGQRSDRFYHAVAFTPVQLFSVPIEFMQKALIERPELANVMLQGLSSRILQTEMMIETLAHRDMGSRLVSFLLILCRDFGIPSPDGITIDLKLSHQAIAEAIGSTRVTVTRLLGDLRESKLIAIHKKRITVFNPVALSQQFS
Description: X-ray crystallography.

The data set “crystal structure” deals with the molecule itself. Briefly: crystal structure.

B1: PipX from Synechococcus elongatus (strain PCC7942) with N-terminal His6 tag (natural protein)
chain: MASENYLNHPTFGLLYQICSFGDSKELFATLYAQRLFFLVAFDARGTRFEPIGRNEARMLVDNRLRQLRRDASLQEYNQLQQVFKQTFL
For B1, the binding result in data set [1] is listed as “binds”.

B2: nicked symmetric glnA half-site NtcA box (NtcA-DNA crystal) (dsDNA)
DNA 1: CATTTTTATGTATC
DNA 2: AGCTGATACATAAAAAT
Take B2: the binding result with NtcA is given as “binds”. As to B3, in the data set “crystal structure”, the binding result is listed as “binds”.
